From article doi:10.1101/2022.01.03.474807 come the findings set out here.

The target in assay [1] is human melanocortin-5 receptor (human) (UniProt P33032).
In assay [2] the target is human melanocortin-1 receptor (human) (UniProt Q01726).
The target in assay [3] is human melanocortin-4 receptor (human) (UniProt P32245).
The target of assay [4] is human melanocortin-3 receptor (human) (UniProt P41968).
UniProt P41968, sequence (P41968 whole entry): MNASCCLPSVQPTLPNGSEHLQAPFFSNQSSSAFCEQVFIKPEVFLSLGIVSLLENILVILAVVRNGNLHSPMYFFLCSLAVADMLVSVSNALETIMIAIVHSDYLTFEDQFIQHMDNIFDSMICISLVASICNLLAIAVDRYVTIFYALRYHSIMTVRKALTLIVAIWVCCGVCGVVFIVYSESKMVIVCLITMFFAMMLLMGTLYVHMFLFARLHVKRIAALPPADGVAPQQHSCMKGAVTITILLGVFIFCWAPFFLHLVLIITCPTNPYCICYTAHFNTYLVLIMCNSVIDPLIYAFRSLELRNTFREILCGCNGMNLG

UniProt P32245, sequence (P32245 whole entry): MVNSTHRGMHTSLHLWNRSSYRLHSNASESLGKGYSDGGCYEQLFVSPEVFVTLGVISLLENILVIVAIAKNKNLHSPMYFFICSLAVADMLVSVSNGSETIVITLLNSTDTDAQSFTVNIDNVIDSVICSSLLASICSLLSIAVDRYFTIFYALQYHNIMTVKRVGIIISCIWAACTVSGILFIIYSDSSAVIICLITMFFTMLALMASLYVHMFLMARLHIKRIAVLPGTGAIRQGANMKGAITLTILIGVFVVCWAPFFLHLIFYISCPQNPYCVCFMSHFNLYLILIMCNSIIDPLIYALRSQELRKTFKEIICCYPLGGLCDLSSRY
UniProt P33032, sequence (P33032 whole entry): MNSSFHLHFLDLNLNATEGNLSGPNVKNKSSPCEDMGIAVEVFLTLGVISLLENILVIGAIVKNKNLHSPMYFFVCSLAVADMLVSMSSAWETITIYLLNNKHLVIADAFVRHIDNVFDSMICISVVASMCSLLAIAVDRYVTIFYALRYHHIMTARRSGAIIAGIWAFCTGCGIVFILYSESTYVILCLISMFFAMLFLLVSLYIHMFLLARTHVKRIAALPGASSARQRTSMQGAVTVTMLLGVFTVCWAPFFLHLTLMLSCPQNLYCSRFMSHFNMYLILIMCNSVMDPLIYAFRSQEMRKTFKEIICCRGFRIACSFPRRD
UniProt Q01726, sequence (Q01726 whole entry): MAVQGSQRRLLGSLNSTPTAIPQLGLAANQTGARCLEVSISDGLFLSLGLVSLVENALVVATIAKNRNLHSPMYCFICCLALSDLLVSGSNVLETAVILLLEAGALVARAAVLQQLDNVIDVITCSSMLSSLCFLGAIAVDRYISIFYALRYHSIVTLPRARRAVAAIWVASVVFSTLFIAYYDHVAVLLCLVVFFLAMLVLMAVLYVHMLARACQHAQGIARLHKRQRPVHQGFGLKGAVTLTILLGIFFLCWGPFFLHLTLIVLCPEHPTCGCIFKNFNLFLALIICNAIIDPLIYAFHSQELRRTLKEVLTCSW

Turning to “α-melanocyte-stimulating hormone (ligand)”, the EC90 of the cAMP response (split-luciferase cAMP sensor) was determined as 500 nM in assay [1], 10 nM in assay [2], 70 nM in assay [3] and 30 nM in assay [4].
